# Assay: soluble on expression in E. coli; label from the status in PepcDB or PDB records
row,Sequence,soluble on expression in E. coli
1,MIPLLAFAAWSGTGKTTLLKKLIPALCARGIRPGLIKHTHHDMDVDKPGKDSYELRKAGAAQTIVASQQRWALMTETPDEEELDLQFLASRMDTSKLDLILVEGFKHEEIAKIVLFRDGAGHRPEELVIDRHVIAVASDVPLNLDVALLDINDVEGLADFVVEWMQKQNG,soluble
2,MIPQIQTLQRLMKATKAARHTKMVNNLDMPFLASRLFVVPHMLASTKLDIILNALAPRLFAGEKFPIEAYSQGNTEAFRPPETYVVQNNIAIIPVHGTLVRRSAWLGALSGLTSYEGLRASFREAIAQPDVNAVLLDIDSGGGEAGGIFDLVEEFQTLSKQYAKPIWAHANEFACSAAYAIACAASQIWIARTGVVGSIGVVCAHLDQSLADEKQGLKWTFVFEGDHKTHGNSHEPLSDTAQIKMQADCALLYEMFVDWVAKNRPLSADAIRDTKAETFIGIQALELGLADAQGTLAQALEALTDSISQTPTATKEGQNTWHAHNTAPKKMMMKKLSTSSTKTKRTKTRATLMKTSTKTKMRTKINRKA,not soluble
3,MIQERKNLVTFGDQLVEAGRRLGRLCVGIDPHPSLLKQWGCDDGIAGLQRFTEICVEAFSGNVALVKPQVAFYEAWGAAGYQILESAISELRQAGTLVLSDAKRGDIGSTMAGYAQAWLAEESSLSSDAVTVSPFLGYGSLSPVLEVAASTNKGVFVLAATSNPEARSLQDRIGEDGLSISQLMVDSVALSNREHKENNHYGNVGVVIGATLAHPPQLERLNGPILLPGVGAQGATPADVARLTQGVQELAFANVSRGILKAGPSASALSTAISKFVEEFTN,not soluble
4,MIQEYQLRILPEIAASEQQLKAYLSQEKGLNQRDITALRTLKRSIDARQRTIYVNLKVRVYLNEMPKDDEYEHTIYNNVEGKPQVIVVGAGPGGLFAALRLIELGLRPVVVERGKDVRERKKDLAQISREHRVDPESNYSFGEGGAGAYSDGKLYTRSKKRGNVDKILNVFCQHGASTAILVDAHPHIGTDKLPRVIENMRNTIIECGGEVHFKTRMDALIIEQGEVKGIETNTGETFLGPVILATGHSARDVYRWLAANNVTIEAKGIAVGVRLEHPAGLIDQIQYHNRSGRGKYLPAAEYSFVTQVDGRGVYSFCMCPGGFIVPAASGPEQVVVNGMSPSNRGSRWSNSGMVVEIQPEDIINDKRLTVNNEAEETFPELAVLHFQEELERQCWLQGGRRQTAPAQRMVDFTRKKLSYDLPESSYSPGLISSPLHFWMPEFIAGRLSQGFQQFGRSSHGFLTNEAVMIGVETRTSSPVRIVRDKDTLQHITLRGLFPCGEGAGYAGGIVSAGIDGERCAEAVAQFMNPLEHHHHHH,soluble
5,MIRELFEKEGFTLDEEQERKFSIYLQELLRWNKVHNLTSIKKPEEIVRRHFIDSVSVVRCFERIGLDLRGKHFADVGSGAGFPGVPLKIYLKDIKLTLIESVSKKCSFLEYLKIKLNEDYRVLCTRAEKVEEKFDVVLARALGEFEEVKEILEKLSIGYVFVYKGSKLKEEWLKDYKLCELSLSFMPKSYILWKKV,soluble
6,MIRFEIHGDNLTITDAIRNYIEEKVGKLERYFNNVPNAVAHVRVKTYSNSTTKIEVTIPLKDVTLRAEERHDDLYAGIDLITNKLERQVRKYKTRVNRKHRDRGDQDIFVAEVQESTTNNHADDIESENDIEIIRSKQFSLKPMDSEEAVLQMNLLGHDFFIFTDRETDGTSIVYRRKDGKYGLIETTELEHHHHHH,soluble
7,MIRGEYLLRELNQNILLQSCQEFVKDYLDTICSFYLGKEVWYRFTELTNTEANCLVGTKEFFDEGHPLFGYRGTRRLLACLDEFQAEAHVVTEVYQTNPNLSVIFPFVNDADQLKQAITVLRQQGFTGKVGTMIELPSAYFDLSSILETGISKIVVGMNDLTSFVFATMRNSQWHDMESPIMLDMLRDMQDKARKNKIDFAVAGYLNTSFIQKMNQLGIKCIIHYSSIPEIFDLEIDHPDHLKHIKEESKKLQRSTHDTARNVE,soluble
8,MIRISDAAQAHFAKLLANQEEGTQIRVFVINPGTPNAECGVSYCPPDAVEATDTALKFDLLTAYVDELSAPYLEDAEIDFVTDQLGSQLTLKAPNAKMRKVADDAPLMERVEYMLQSQINPQLAGHGGRVSLMEITEDGYAILQFGGGCNGCSMVDVTLKEGIEKQLLNEFPELKGVRDLTEHQRGEHSYY,soluble
9,MIRITLHTYCISELFSGDLELFASKLEETSQNQKTYSTPRSSDFRAILPTYSTPRSSDFGAILPIHSTTRLSNLSSGHSMTLLDPLVEYHFATLPDNTRPFTLPSYSTPWSSIITHHHQHHSTGHSITSSQSTQIRTQPDKLSTRKRRGEDKVFGSGLDLHRIKKPISAHYLSMGRAIRLLARLLSFYFVLYK,soluble
10,MIRLPLLPTVIKNLFKKPATNPFPKTEPVPVPEDFRGKLVYNVDKCVGCRMCVTVCPAGVFVYLPEIRKVTLWIGRCVMCKQCVDVCPTAALQMSDEFLLASYDKYDAKLIYLTPEEAEDIKKKLEEANKAKAEKQASK,not soluble
11,MIRQTPLEKRYDKLGPHIVTALKKRYFDAYYCKTRNEALQQILDLIPQNHVVSWGGSETLKEMGVQTAVREKGFKVIDRDLAKTPEERTEIMRQALLCDTFLMSSNAISEDGQLFNIDGNGNRVAAMIFGPKNVIVVAGMNKIVKNIDDAIQRTRTVASPAVVQRFQDVNTPCYINGSCIDCTSPESICAYMVTTRISRPAKKIKVILVGENLGLLEHHHHHH,soluble
12,MIRYMIKESRMELIEENMKHLQDRLKTAKENEMSAKTVRHDFRHHNQNIATMIQKGETNEALHYIEQYNESLDAARTKEFCSHVTVNAILSSFYIKAQNDGICISIEADTQEGTNISDMDFVAILSNILENAVNGCKECGAHGKINVNIRTVSDKTVIVCSNSCKPGLVIENNMIKHRGIGIESMLTAARKYDGDISYRLENDVLTLCVILKK,not soluble
13,MISAGIDPGTGSYDVVAIEDGKVVFRKNIPTEEVRASPDVIVEVIEESGAEVAAGLSGYGLPVKRFSELDEVDLLLMTLNFDSERAIGLRNIIKAVKERNVNLYTVPAVIHLPTVPPWRKMNRIDIGTADKLCSAVLAVAKLSEEEELTKLNFILAEVGEGFNAFIAVRNGRIVDGMGGTTSFPGYSSLGAMDAELAYIIGEFPKKLIFSGGVKSFASEWKVNENEVTNILSEFVLKGIRAMEVSTDADFYMLSGRFAPDVLRKLRGEGKEVRLLGGFGRGKQSAQGAAIIANAIAGGEYREIVDYMRIFEAKGTLLDYITSDIMEYVRRGLKRRGD,not soluble
14,MISEGCEQCAKGGKMVLFVYGYCDQRDCFYCPLGENRKNVTQMYANERPIEDDADVIEEAKRMSALGTSITGGEPQEVLDRTCHYLELLKDEFGEDHHTHLYTGIPGGRENMRRLSEAGLDEIRFHPPLEQWGDLHGTEWEDILYIAREEGLTPAFEIPGIRAEEEFLEFLDEGAADFCNINEFEMSDGNYRRMQEEGFELKEDHMSAVEGSHDILEKMGDHEKVYFCTSVFKDAAQHRSRLKRMARNIRRPFDDVTDDGTLVYGKAWTSEARLETLGVPEEYYTVKSEHVELAWWLLEEMVEEGDVEKGEIVEQYPTYDGTVVERTPLSNGADAGRATADD,not soluble
15,MISEKPAAKRIQSGGCAIHCQDCSISQLCIPFTLNESELDQLDQIIERKKPIQKGQELFKAGDELRSLYAIRSGTIKSYTITEQGDEQITAFHLAGDLVGFDAITGDQHPSFAQALETSMVCEIPYEILDDLSGKMPKLRQQIMRLMSNEIKGDQEMILLLSKKNAEERLAAFLYNLSTRFSQRGFSPREFRLTMTRGDIGNYLGLTVETISRLLGRFQKSEILSVKGKYITILNHAELMELAGVSKESK,soluble
16,MISILHVAARVLELRPSCDKMKLYKLCYFSQGWHLAWTGRPLFNEELQAWKYGAVSPTLRQASGLRADDDRLVTQIWSGDSSQLIDYERSVVDTVVSFYGDLESFHLSDLSHGFAWSTVRGNLPPDASCSDVIPHSLIRREFVENAWGEAPTPNAPERLPSMALDALEQAADDVAAENAETLRLLAFI,not soluble
17,MISNIFKISAALLLLTIVSEAKPCFGRCGGRPPPPCGLPPFLEDLPSDVQTKITEIWKDYKEGDKCYEEQGLTREIMESLPKDVRKSIHKRPPLPFLRGLPKDILAKFDAIFKDKSIPFSEKPEKIDALAQEVLTGDNLKKFQEFKEKKEKEMQEYKDKESKLSAAAKVANEKLEALGKQKFAILEELDENVKDELFDLWKSRPHGPPRHH,not soluble
18,MISNKNIFNRFQQWMDTFLMLELQWFLIYANVANQMIVYGCCQMSKKTSNETPKVFLMLGHFFVSLKYPGATETKNWSKKLPFHYFHKYV,not soluble
19,MISRPESSLSGLESSQEVQKKTWNPRNYSARLTENIGLPLILLEKHNPWPAYVAYISPAVTRITEKGWARDLEYIYAAEKNGKPVKRSKHSAVLLKRRKPSKPSELMLKETLSETMLPTWECSTIYVSPTFVPEPAQLQMDVREGPTSNYNKIIFSKRPAMRKLPFGLLQASKEMHTKD,soluble
20,MISVTLSKIADVLGAEHRGADLTLDTVITDTRKVTPGCLFVALKGERFDAHDFADKAKANGAGALLVSRPLDIDLPQVIVKDTRQAFGQLAAWVRMQVPARVVALTGSSGKTSVKEMTAAILSQCGNTLYTAGNFNNDIGVPITLLRLNHDYDYAVIELGANHQGEIAWTVSLTRPEAALVNNLAAAHLEGFGSLAGVAKAKGEIYTGLPENGIAIMNADNNDWLNWQSIIGDRLVWRFSPNAANSDFTAANIHVTSHGTEFTLQTPMGSIDVLLPLPGRHNIANALAAAALSMAVGATLTAIKAGLAALKAVPGRLFPIQLSENQLVLDDAYNANVGSMTAAVQVLSEMPGYRVLVVGDMAELGAESEACHLQVGEAAKAAGIDRVLSTGKLSQAISHASGVGEHFADKAALIARLHALLQEQPMMTILVKGSRSAAMEDVVHALQEKGSC,not soluble
21,MISVVGAGGKTSLLFWLAELLQASGRRVLITTTTHMFMPTSHWPVVFCRDPAMLPHASLTSPISFCFHSWKANQGKVQGFTPEAIDALVQRPECDVILIEADGSRGMPLKAPDEHEPCIPKSSCCVIAVMGGHTLGAKVSTENVHRWSQFADITGLTPDATLQLSDLVALVRHPQGAFKNVPQGCRRVWFINRFSQCENAIAQSELLQPLQQHDVEAIWLGDIQEHPAIARRFVNLEHHHHHH,not soluble
22,MITIITQDQLKTSPSVREDGRAFDELRPLKIEAGILERADGSSYLEFGGNKILVAVYGPREAQIRKLQRPDRAVIRCRYNMAPFSVEERKRPGPDRRSVEISKITAEALRPALILEKFPRSVIDVFIEVLEAEGGTRCAGITAASVALADAGIPMRDMVVACAAGKVGDQVVLDLSEEEDKEGQADVPVAILPRTREITLLQSDGNLTPEEFERALDLAVEGCLRIHEVQKEALRKRYGE,soluble
23,MITISNEDNMILMSRYPDKYFDLAIVDPPYGILNKTKRGGDYKFNMNEYSQWDIKPDQTYFNELFRVSKNQIIWGGNYFGELWLRSEYNKGFIIWDKNQPETLNNFSMAEMAWSSFDRPSKIFRFSVRKNRNKTHPTQKPVELYQWLLKMYAKQGDKILDTHLGSGTLAIACCIAQFDLTACEINSDYYQQSIEKIKNNLPEARISFGHPGYCIIE,not soluble
24,MITLNHIAKTYYQGKLAVPILHGISLTIQSGEFVSIMGPSGSGKSTLMNIIGCLDRPTEGEYMLNDVNILTADESKLALIRNEYIGFVFQHFNLLPRLSAVENVELPLVYGGIKKAERRKRALEALGKVGLADRVHHLPNELSGGQKQRVAIARAIANNPTFIMADEPTGALDTKSGEQVMDIFTKLNAEGTTIVMVTHEEEVAAYSSRRIVLRDGKITEDRRCAV,not soluble

# Source: the DeepSol protein solubility set
